In the DeepSol protein solubility set:

Test: soluble on expression in E. coli; label from the status in PepcDB or PDB records

Sequence | soluble on expression in E. coli
MEDVNDLYTMALGEFYAPAPSTSSIKKPAKVPEDQPSTSSAPPTTALFRQLLIGSRSQIERLKKENEELKTKLKHATSSGGVVICPNCTHHFKDRQCPMRPRAMKKMRARNCVELEFGNLEDLEMWLYLNQLETNNDGMPTVMNVKKATNCPEKSLKESGSLLPELVEKKREEKRQQEDQKAVVLEKRKPVTQKVQDHLKRRSKSPIGRGKDQSDKDIISNKKRKLNRQSKEEIDERSKIAKKAPISQRVQFPRMPAPQAPDAVASKVREQKPVDITPHPRPSASRNSESQKPVASKIQEKKTEVRTKSSPTNPIVNSKQPSQKKPADLTPHPKRPPITPETLPSRNSEIQKPAASKIQEKKTEVIARSQKSEASTKIAQKPSPTNPTVNFKQPSQKPADLTPKPITLASKSPITRSSEVSTEPSTKPKRAPIVWDDKPKDSTAKELPKELPKAKSHFEFKVKPIEKKDASPPKTTSTSSASPPNPDPAMKQKYKFVPTSKKQKLTETKNKDQKSTINESPVECQNSGQNEASNPTKLKDQELNKHVVPKNPEAIETPDERQESVQKSNEASATSSTKPSDPVETPSDEVDPQETQWKVYSVKQSRPVLDHIYKFALARQSLKRHWNDKMIVLNGDVPQEKVEESKPLSIAESLKRIGVSVEGIAVLQKQLKASAPEPPVLSTTVDDEDALGEFFPDLAKRKTSEIRPVSAESLWSVTDREEEELKILVREDSVVPPSGDCLMDVEAYEITEDLESQTYEASQSDWKEFCLEDVDDDVDETLRERKLSEMEKSAENLDENMDWIENLEELGNDDEQEEEEEEDQEQEQEQVAPSRSISVPLEMKNDFVLSDEDDPVSPVTSTPRKEDFNDDLSGCLEEDEEDTENLLPQAKDDSFIDELDWNYGTDYEEEEVEEAEVVVEEKDNSGSDHDATLEDGEISENDDGEDEKKEEEPKKPIRERTKFMITEDQLGPKTDEEEDEPPEIHRAPPRKRKINYNRQKGSEDNRHRNYRKRDTRPATYLSLLKRRNS | not soluble
PNFSGNWKIIRSENFEELLKVLGVNVMLRKIAVAAASKPAVEIKQEGDTFYIKVSTTVRTTEINFKVGEEFEEQTVDGRPCKSLVKWESENKMVCEQKLLKGEGPKTSWTLELTNDGELIDTMTADDVVCTKVFVRE | soluble
MGSDKIHHHHHHMQTFHELEQTQSVIATILRNSLQTNRINHAYIFTGDYEPLLLEAAQLFAKSLFCERRDQIEPCQTCRSCRRMDSGNLVDYYQIEPDGATIKKEQIQELMHDLSLRGLEGDRQIYVVTQSHKMTPQAANSLLKFFEEPGAGKVAILITNQPQLLLPTIRSRGQLLSFRPADRLLIGQVLSEKTGRDNELTQLAARVYPKIEDAEQALVEDWFVNARVSVLQLMEELANRPADLPLFVQEKWMSQFKNRQDARIGLELVTCFFEDVLHLKLNPSWETITYANSRPLLEQMGGKSQTTITRWLQAVLAAVKRIEANVNPQLTVERLMFDLQKG | not soluble
MGSDKIHHHHHHVWNDRVELSGKCEYALLALIELARGHSNGEPQQIKQLADRQNIPDRYLEQLLATLRRGGIVRSVRGARGGYLLAREPWQISMQDVVHCIDGTEMQRTEAIDQQSVTIERQILVDINVELCKAVEDVLAAYSLQDLLEIRENRASTDLMYYI | not soluble
SATETQIRIGVMGCADIARKVSRAIHLAPNATISGVASRSLEKAKAFATANNYPESTKIHGSYESLLEDPEIDALYVPLPTSLHVEWAIKAAEKGKHILLEKPVAMNVTEFDKIVDACEANGVQIMDGTMWVHNPRTALLKEFLSDSERFGQLKTVQSCFSFAGDEDFLKNDIRVKPGLDGLGALGDAGWYAIRATLLANNFELPKTVTAFPGAVLNEAGVILSCGASLSWEDGRTATIYCSFLANLTMEITAIGTKGTLRVHDFIIPYKETEASFTTSTKAWFNDLVTAWVSPPSEHTVKTELPQEACMVREFARLVGEIKNNGAKPDGYWPSISRKTQLVVDAVKESVDKNYQQISLSGR | soluble
MSLKNVLTGLFLLILATACSEEEPQTITPVPFNQVTLTDGFWKNRMQTEINVTVPFSVEQSAPAVERFRRCAAFLAGDSTALPETHRFISSDLYKVMEGVSYSLMIQPNKELEEFMDRVADLITASQKDDGYLYISHICGNPDPREMGEKPYSWVVHSHELYNVGHLYEAAVAYYQATGKDKLLNVAIKSAKHVNKVFFEGGDPNYNGGKPINQAPGHEEIELALCKLYRVTNDPLYLDMAKKFLEIRGVTYRPEGEGVMAPTYAQQHAPVKEQTEAVGHAVRAAYLYTAMAQVDALTGLNDYTKALNSIWTNLVTTRMHITGGLGAVEGMEGFGAPYELPNLTAYNETCAAVANVFFNYGMYLDSGDAKFLDIAELSLFNNSLAGINLHGDRFFYVNPLEADGVRRFNHGNGGRAKWFGCACCPPNISRLILQVPGYMYAYSKDRVYLTLYGGSQTTIPLEGTRVKLEQTSAYPFDGKVRLTVQPEKGSKFSVCMRIPTWARSDEFVPGGLYPYKQPKQAEVELSVNGQKTDFKMEKGFAVIKRDWKPGDVVELNIPMPVRFVDCIPEVSENIGKTAVTRGPLVYCAEEVDNAGPVQRLYLGDTNEAQAKVANISSGVLQGLERITLPGMEKKVGGITSREITMIPYYAWCNRGDNRTMLVWLNEEASTASIGQQTMAYLRNVKGVNASSVAGGKNISVRALCDGKVSESSADKLTEQWVSEGSGKQWVQVDFREPFLLNSLSVYWLDDQDKITVPSGWSVEYKSDAGWTPLELYVTDSYQMGTDRFNVVHPSGSLEVESVRILIEPQKGKSIGVSEIRFEEGHHHHHH | soluble
MPLPSFLEVYEGLISTSSISSTDARWDEGNEQVIAKLADWLSALGFSIQIEQVAPNKQNLIAKLGSGEGGLLLAGHSDTVPFDEGRWNYNPHALTQVNNRFYGLGTADMKGFFAFIYEAVKNVDWSKQTKPLYVLATCDEETTMLGARHFTENAPFKPDYCIIGEPTSLVPIRAHKGHVANAIRVTGKSGHSSNPALGVNAIEIMHEVLFALMQLRDRLIKEYHHPGFEIPTPTLNLGHIHGGDSPNRICGCCELHYDVRPLPGISLDGLDNLMHDALREVQQKWPGRIELVPLHDPIPGYECAHDHPFIHGISEICEQEAQTVNYCTEAPFLQQVCPTLVLGPGSIDQAHQPDEFLAFEFIDPTVRVLSRAMQKYCF | soluble
MGSDKIHHHHHHNDDPGKDPDVVTYDFKNLPADSGAKPTEDQMSAVVATFVDEVALPTYKDMLTKMTAYKNAVDKFIASGSKNDLADACDAWRAVRVPWEQSEAFLFGVADLAQLDPSLDSWPLDKNGIEEIIATGEFSKISGAVDEDAEDGPQNLRGFHTAEKMLFLDGEPRDLETSPFAKNELEYLKLVSERMLSDTQDLYNGWLKGLGTSDVPSSYAEAMKKHDGSAYSIGNVYQAIELMLNGNNGMAGISNEVGSAKITDPVTAWNGSNKDATDPNNPGVLAVESWYSWNSLDDYKNNIVSIKNAYFGGRDLDEESASESSLHALTKMINPTLDSLMVVQIDKTIDAINAIGYPFRNNLGDTEHINTATEACADLTTGLGVVKSKFTN | not soluble
MILLDTNVISEPLRPQPNERVVAWLDSLILEDVYLSAITVAEMRLGVALLLNGKKKNVLHERMEQSILPLFAGRILPFDEPVAAIYAQIRSYAKTHGKEIAAADGYIAATAKQHSMTVATRDTGSFFAADVAVFNPWHLEHHHHHH | soluble
SLKALWIYVGPVEDYGWTRAHHDGHMKARSKLGWLESSYIETVSEDKAYDVIKAQLDAEGYDAVFATSYGYMDALKRLATEYPDVKFYHCSGPWEEFRDLPNVSTYFAEFYQLYYLNGLAAAGATETCNLGYIPAFLIPEVVRHINAYVIGAVEGAKVLGKCGDGRNIRVLVTPPLNSWFAPDKARDAARLLVETYDVDVIAYTEDTTAVLETAESYWDQGVKVYSFSHYTDMYAYFKSQGKTLRSHLTGQIS | soluble
MSRTLTPLLDRVCEPQDLRAFPESDLARLADELRAETIDVVSVTGGHLGAGLGVIELTVALHYVFNTPEDRIIWDVGHQAYPHKILTGRREKIRTLRQEGGLSGFTKRSESVYDPFGAGHSSTSISAGLGMAVASALKAEKRRNIVAVIGDGAMSAGMAYEAMNNAGALNARLIVVLNDNDMSIAPPTGAMSAHLARLVSRPAYRSLRERVKVLGEKLPKFFLDKARRSEEFARGFLVGGTLFEELGFYYVGPIDGHNLKHLLPVLKNVREYPTGPVLIHVVTHKGKGYAPAEASLDKYHGVNRFDIITGKQVKASSNVLPYTKVFSKALREEASYDDKIVAITAAMPTGTGLDFFAEKFPERMFDVGIAEQHAVTFAAGMACEGYKPFVAIYSTFLQRAYDQIIHDVSIQKLPVRFAIDRAGFVGADGATHAGSFDIVFLTTLPEFVVMAPSDEVELMHMVRTAAAYDQGPISFRYPRGEGIGMDLPQRGEILEIGKGRILHEGNRIALVCFGTRISEVLVAADELSAEGLSTTVADARFAKPLDKDLMRRLAREHEVLVTIEEGAIGGFGAHLLQFLAQEGLLEHGLKVRTLKLPDEYLNHGSQEKVLSRIGLDAVGIVNTVFSALGRKIRTVQRVRV | not soluble
MQEQIQEYAKRLKLSWIRENYREVEAANTEEYLLKLFEKEIEQREERKINLLFKAATLPNVSGKPFDWKDIQLGQGLSQQSLLDGEFIESKENMVFYGGVGAGKTYLSTLIGMNAIQKYGKRVKFYTIASLANELLEANDKGNLNKLFKKIEKLDLLILDELGYIPLHKHGAELLFQVISLCYEKRSIIITTNLQFGQWNHVFGDPILTEAVVDRLIHHSHLVIFGGDSNRMKKSFLLNNMLEHHHHHH | soluble
AHHHHHHGSRVLKSEGVSMLNTELLTTGVKGLDELLGGGVAKGVILQVYGPFATGKTTFAMQVGLLNEGKVAYVDTEGGFSPERLAQMAESRNLDVEKALEKFVIFEPMDLNEQRQVIARLKNIVNEKFSLVVVDSFTAHYRAEGSREYGELSKQLQVLQWIARRKNVAVIVVNQVYYDSNSGILKPIAEHTLGYKTKDILRFERLRVGVRIAVLERHRFRPEGGMVYFKITDKGLEDVKNED | soluble
MHHHHHHSSGVDLGTENLYFQSMARPATVLGAMEMGRRMDAPTSAAVTRAFLERGHTEIDTAFVYSEGQSETILGGLGLRLGGSDCRVKIDTKAIPLFGNSLKPDSLRFQLETSLKRLQCPRVDLFYLHMPDHSTPVEETLRACHQLHQEGKFVELGLSNYAAWEVAEICTLCKSNGWILPTVYQGMYNAITRQVETELFPCLRHFGLRFYAFNPLAGGLLTGKYKYEDKDGKQPVGRFFGNTWAEMYRNRYWKEHHFEGIALVEKALQAAYGASAPSMTSATLRWMYHHSQLQGAHGDAVILGMSSLEQLEQNLAAAEEGPLEPAVVDAFNQAWHLVAHECPNYFR | soluble
MGSLLSTPEGSNPIGKAIGFLSQRKRPAVELQDDFEPEVKVQRTCEVQDEEAEEENIEFEHEIDEEEIEEQDEIVHEQSENDQNLKDSDEKKNEIVALEKSTEKDEELPIPEKEAQVDQEDTLENLFEKETESNNTNEQQENVETNDTTSNFDLNEAEERVDVFSNGLLTSIQSTQPEIIA | soluble
IVRPPFTYATLIRQAIMESSDRQLTLNEIYSWFTRTFAYFRRNAATWKNAVRHNLSLHKCFVRVENVKGAVWTVDEVEYQKRRSQKITGSPTL | soluble
MGSDKIHHHHHHMILTVTASPYLLSTNELDGTIEIGEANKIRQVSTVAGGFGTGVAATLFYGGNETFAVFPAPEISHYMRLVTFAGLPHEIIPVAGPIPMHLTMRDAEGNETKFKDSPMPLDVSQLAILRDLVVRRAEDAAWVLLGGNLPSIAPAAWFVDVVRSLRLYHPHVKVAIAATGAALRAVIRQLAATSPDALIVAAEEIEIATGLEPKTLRGPWVEGDLSPTVAAARALIDSGVTEVLVTNKRTESLYVSESESLLASYDSTPGKQGVNWRESFTAGFLAASNDGKSTEDSVINAVAYANAEGSEWDNYIPTPDKLRAEHVVIKSL | not soluble
